In patent US20170044260A1 (Innovent, published 2017):

Legend:
cynoPD-1_Fc = cynoPD-1_Fc (cyno, UniProt B0LAJ3 25-170); test: bio-layer interferometry (ForteBio), monovalent: Fab in solution, cynoPD-1_Fc on sensor tip
human PD-1 on cells [1] = target: T1, human PD-1 on cells (human, UniProt Q15116 25-288); test: flow cytometry blocking: CHO cells with human PD-1, 100 nM antibody, then PD-L2-FITC (competitor); remaining PD-L2-FITC signal
cynoPD-1_Fc (cyno) = cynoPD-1_Fc (cyno) (UniProt B0LAJ3); test: bio-layer interferometry (ForteBio), monovalent: Fab in solution, cynoPD-1_Fc on sensor tip
human PD-1 on cells [2] = target: T1, human PD-1 on cells; test: cell-based or functional assay
human PD-1 on cells [3] = target: T1, human PD-1 on cells; test: cell-based or functional assay; remark: listed apart in the source
human PD-1 on cells [4] = target: T1, human PD-1 on cells; test: flow cytometry on CHO cells with human PD-1, PE-labelled secondary antibody
Procedure: Cells are then washed 3×, and are incubated with a secondary antibody (PE-labelled, at final concentration of 5 μg/ml) in PBS 1% BSA for 30 min on ice (protected from light). Cells are washed 3× and analyzed via flow cytometry. Flow cytometry is performed on an Accuri C6 system (BD Biosciences) and MFIs are calculated on the C6 software. EC50s are calculated on Graphpad software.

hPD-1_Fc [5] = target: T2, hPD-1_Fc (human, UniProt Q15116 25-167, limits assumed); test: bio-layer interferometry, PD-1_Fc on the sensor tip; reference nivolumab and pembrolizumab
T2 construct: also called human PD-1_Fc; not shown: Fc part

hPD-1_Fc [6] = target: T2, hPD-1_Fc; test: bio-layer interferometry (ForteBio), monovalent: Fab in solution, hPD-1_Fc on sensor tip
[7] = target: T3, human PD-1 (antigen of the avid KD measurement by MSD) (human, UniProt Q15116 25-167, limits assumed); test: MSD solution equilibrium titration, avid KD against human PD-1; avid KD, IgG1 format
Procedure: (§1) Equilibrium affinity measurements are performed as previously described (Estep, P., et al., MAbs, 2013. 5(2): p. 270-8). […] Antibodies diluted at 20 nM in PBS are coated onto standard bind MSD-ECL plates overnight at 4° C. or at room temperature for 30 min. Plates are blocked with BSA for 30 min whilst shaking at 700 rpm. Plates are then washed 3× with wash buffer (PBSF+0.05% Tween 20). SET samples are applied and incubated on the plates for 150 s with shaking at 700 rpm followed by one wash. Antigen captured on a plate is detected with 250 ng/mL sulfotag-labeled streptavidin in PBSF by incubation on the plate for 3 min. The plates are washed three times with wash buffer and are then read on the MSD Sector Imager 2400 instrument using 1× Read Buffer T with surfactant. The percent free antigen is plotted as a function of titrated antibody in Prism and fit to a quadratic equation to extract the KD. To improve throughput, liquid handling robots are used throughout MSD-SET experiments, including for SET sample preparation.

hPD-1_HIS [8] = target: T4, hPD-1_HIS (human, UniProt Q15116 25-167, limits assumed); test: bio-layer interferometry, antibody on the sensor tip; reference nivolumab and pembrolizumab
T4 construct: not shown: His tag

hPD-1_HIS [9] = target: T4, hPD-1_HIS; test: bio-layer interferometry (ForteBio), monovalent: hPD-1_HIS in solution, IgG on sensor tip
Procedure: Briefly, ForteBio affinity measurements are performed by loading IgGs online onto AHQ sensors. Sensors are equilibrated off-line in assay buffer for 30 min and then monitored on-line for 60 seconds for baseline establishment. Sensors with loaded IgGs are exposed to 100 nM antigen for 5 min, afterwards they are transferred to assay buffer for 5 min for off-rate measurement. Kinetics are analyzed using the 1:1 binding model.

b-PD-1 monomer [10] = target: T5, b-PD-1 monomer (human, UniProt Q15116 25-167, limits assumed, biotinylated (b-); site not stated); test: MSD solution equilibrium titration, monovalent KD against human PD-1; monovalent KD, IgG1 format
T5 construct: also called human PD-1; antigen of the MSD assay
Procedure: as §1

[11] = target: T6, human PD-1-Fc (R&D Systems) (human, UniProt Q15116 25-167); test: SPR (Biacore T200), human PD-1-Fc immobilized, antibody as analyte, 37° C.
T6 construct: not shown: Fc part of the bought fusion protein; not described
Procedure: (§2) All sample analytes are run in 3-fold series dilutions from their starting concentration (90 nM), 8 total dilutions with one duplicate at a middle concentration and a zero. The analysis is performed at 37° C. The contact time for each sample is 180 sec at 30 μl/min. The dissociation time: 300 seconds for 5 lower concentrations and 1200 (Fab), or 2400 (T=0) or 3000 (4 weeks 4° C., 25° C., 40° C.) seconds for 3 higher concentrations. The immobilized surface is regenerated for 6-8 seconds with 0.4% SDS at 30 ul/min, and then stabilized for 5 seconds. Binding kinetics are analyzed using the Biacore T200 Evaluation software (Version 3.0). Data are referenced to a blank flow cell, and the data are fit to a 1:1 binding model.

[12] = target: T7, biotinylated PD-1-Fc fusion protein (human, UniProt Q15116 25-170, limits assumed, biotinylated; site not stated); test: ELISA blocking: antibody mixed with biotinylated PD-1-Fc, plate coated with PD-L1-Fc (competitor)
T7 construct: also called human PD-1; not shown: Fc part; not described

[13] = target: T7, biotinylated PD-1-Fc fusion protein; test: ELISA blocking: antibody mixed with biotinylated PD-1-Fc, plate coated with PD-L2-Fc (competitor)
[14] = target: T6, human PD-1-Fc (R&D Systems); test: SPR (Biacore T200), human PD-1-Fc immobilized, antibody stored 4 weeks at 4° C. as analyte, 37° C.
Procedure: as §2

[15] = target: T6, human PD-1-Fc (R&D Systems); test: SPR (Biacore T200), human PD-1-Fc immobilized, antibody stored 4 weeks at 25° C. as analyte, 37° C.
Procedure: as §2

[16] = target: T6, human PD-1-Fc (R&D Systems); test: SPR (Biacore T200), human PD-1-Fc immobilized, antibody stored 4 weeks at 40° C. as analyte, 37° C.
Procedure: as §2

[17] = target: T3, human PD-1 (antigen of the avid KD …); test: MSD solution equilibrium titration, avid KD against human PD-1
Procedure: as §1

b-PD-1 monomer [18] = target: T5, b-PD-1 monomer; test: MSD solution equilibrium titration, monovalent KD against human PD-1
Procedure: as §1

T4 sequence (Q15116 25-167 limits assumed): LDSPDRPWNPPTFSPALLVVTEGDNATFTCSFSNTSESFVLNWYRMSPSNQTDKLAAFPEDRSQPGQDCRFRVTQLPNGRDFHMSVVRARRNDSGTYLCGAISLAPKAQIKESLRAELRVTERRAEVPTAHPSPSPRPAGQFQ
T2 sequence (Q15116 25-167 limits assumed): as above
T6 sequence (Q15116 25-167 limits assumed): as above
T1 sequence (Q15116 25-288 limits assumed): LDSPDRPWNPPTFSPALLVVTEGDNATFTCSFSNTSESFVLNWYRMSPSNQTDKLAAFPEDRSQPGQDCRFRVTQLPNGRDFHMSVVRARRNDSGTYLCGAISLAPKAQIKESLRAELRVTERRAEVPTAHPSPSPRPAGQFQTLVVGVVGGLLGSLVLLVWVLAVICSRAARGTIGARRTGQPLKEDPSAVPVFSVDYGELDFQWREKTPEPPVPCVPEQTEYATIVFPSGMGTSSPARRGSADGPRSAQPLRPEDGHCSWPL
Sequence of cynoPD-1_Fc (B0LAJ3 entry or part of it limits assumed): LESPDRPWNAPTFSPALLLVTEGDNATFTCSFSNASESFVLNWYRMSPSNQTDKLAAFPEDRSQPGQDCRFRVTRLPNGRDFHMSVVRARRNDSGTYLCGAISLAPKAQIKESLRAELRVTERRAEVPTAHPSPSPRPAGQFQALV
T7 sequence (Q15116 25-170 limits assumed): as the sequence (B0LAJ3 entry or part of it limits assumed) above, with E2D, A10P, L19V, A35T, R75Q, A144T counted along it
T3 sequence (Q15116 25-167 limits assumed): as the sequence (Q15116 25-167 limits assumed) above
T5 sequence (Q15116 25-167 limits assumed): as above
Sequence of cynoPD-1_Fc (cyno) (B0LAJ3 entry or part of it limits assumed): as the sequence (B0LAJ3 entry or part of it limits assumed) above

Fab of Nivolumab in IgG1 format
Kd (cynoPD-1_Fc): 1.2 nM

control IgG (antibody)
MFI (PD-L2-FITC) (human PD-1 on cells [1]): 183000 MFI

Fab of Pembrolizumab in IgG1 format
Kd (cynoPD-1_Fc (cyno)): 0.47 nM

B1: Antibody G (S228P IgG4) (antibody, V domains shown)
VH: QVQLVQSGAEVKKPGSSVRVSCKASGGTLSSYAISWVRQAPGQGLEWMGLIIPMFGAAGYAQRFQGRVTITADESASTAYMELSSLRSEDTAVYYCARAEHSSTGTFDYWGQGTLVTVSS
VL: DIQMTQSPSSVSASVGDRVTITCRASQGISSWLAWYQQKPGKAPKLLISAASSLQSGVPSRFSGSGSGTDFTLTISSLQPEDFATYYCQQANHLPFTFGGGTKVEIKR
IL-2 secretion fold change vs. IgG control, 0.01 nM IgG (mixed lymphocyte reaction) (human PD-1 on cells [2]): 1.36 fold | IL-2 secretion fold change vs. IgG control, 0.1 nM IgG (mixed lymphocyte reaction) (human PD-1 on cells [2]): 1.91 fold | IL-2 secretion fold change vs. IgG control, 1 nM IgG (mixed lymphocyte reaction) (human PD-1 on cells [2]): 3.12 fold | IL-2 secretion fold change vs. IgG control, 10 nM IgG (mixed lymphocyte reaction) (human PD-1 on cells [2]): 2.62 fold | IL-2 secretion fold change vs. IgG control, 100 nM IgG (mixed lymphocyte reaction) (human PD-1 on cells [2]): 2.45 fold | IFN-γ secretion fold change vs. IgG control, 0.01 nM IgG (mixed lymphocyte reaction) (human PD-1 on cells [3]): 1.17 fold | IFN-γ secretion fold change vs. IgG control, 0.1 nM IgG (mixed lymphocyte reaction) (human PD-1 on cells [3]): 1.91 fold | IFN-γ secretion fold change vs. IgG control, 1 nM IgG (mixed lymphocyte reaction) (human PD-1 on cells [3]): 2.48 fold | IFN-γ secretion fold change vs. IgG control, 10 nM IgG (mixed lymphocyte reaction) (human PD-1 on cells [3]): 2.04 fold | IFN-γ secretion fold change vs. IgG control, 100 nM IgG (mixed lymphocyte reaction) (human PD-1 on cells [3]): 2.07 fold | EC50 (human PD-1 on cells [4]): 1.76 nM

B2: Fab of Antibody D in IgG1 format (Fab, V domains shown)
VH: QVQLVQSGAEVKKPGSSVKVSCKASGGTFSSYAISWVRQAPGQGLEWMGLIIPMFDTAGYAQKFQGRVAITVDESTSTAYMELSSLRSEDTAVYYCARAEHSSTGTFDYWGQGTLVTVSS
VL: DIQMTQSPSSVSASVGDRVTITCRASQGISSWLAWYQQKPGKAPKLLISAASSLQSGVPSRFSGSGSGTDFTLTISSLQPEDFATYYCQQANHLPFTFGGGTKVEIK
notes: also called Fab in solution (row Antibody D in IgG1 format)
fold lower KD than nivolumab and pembrolizumab (hPD-1_Fc [5]): 3 fold | Kd (hPD-1_Fc [6]): 0.56 nM | Kd (cynoPD-1_Fc): 0.67 nM

B3: Antibody D in IgG1 format (antibody, V domains shown)
VH: QVQLVQSGAEVKKPGSSVKVSCKASGGTFSSYAISWVRQAPGQGLEWMGLIIPMFDTAGYAQKFQGRVAITVDESTSTAYMELSSLRSEDTAVYYCARAEHSSTGTFDYWGQGTLVTVSS
VL: DIQMTQSPSSVSASVGDRVTITCRASQGISSWLAWYQQKPGKAPKLLISAASSLQSGVPSRFSGSGSGTDFTLTISSLQPEDFATYYCQQANHLPFTFGGGTKVEIK
notes: IgG1 format, expressed in yeast; also called Antibody D in an IgG1 format and expressed in yeast
Kd [7]: 0.9 pM | fold lower KD than nivolumab and pembrolizumab (hPD-1_HIS [8]): 6 fold | Kd (hPD-1_HIS [9]): 0.31 nM | Kd (b-PD-1 monomer [10]): 0.012 nM

B4: Fab of Antibody G in IgG1 format (Fab, V domains shown)
VH: QVQLVQSGAEVKKPGSSVRVSCKASGGTLSSYAISWVRQAPGQGLEWMGLIIPMFGAAGYAQRFQGRVTITADESASTAYMELSSLRSEDTAVYYCARAEHSSTGTFDYWGQGTLVTVSS
VL: DIQMTQSPSSVSASVGDRVTITCRASQGISSWLAWYQQKPGKAPKLLISAASSLQSGVPSRFSGSGSGTDFTLTISSLQPEDFATYYCQQANHLPFTFGGGTKVEIK
notes: also called Fab in solution (row Antibody G in IgG1 format)
fold lower KD than nivolumab and pembrolizumab (hPD-1_Fc [5]): 4 fold | Kd (hPD-1_Fc [6]): 0.49 nM | Kd (cynoPD-1_Fc): 0.59 nM

B5: Antibody D (S228P IgG4) (antibody, V domains shown)
VH: QVQLVQSGAEVKKPGSSVKVSCKASGGTFSSYAISWVRQAPGQGLEWMGLIIPMFDTAGYAQKFQGRVAITVDESTSTAYMELSSLRSEDTAVYYCARAEHSSTGTFDYWGQGTLVTVSS
VL: DIQMTQSPSSVSASVGDRVTITCRASQGISSWLAWYQQKPGKAPKLLISAASSLQSGVPSRFSGSGSGTDFTLTISSLQPEDFATYYCQQANHLPFTFGGGTKVEIKR
IL-2 secretion fold change vs. IgG control, 0.01 nM IgG (mixed lymphocyte reaction) (human PD-1 on cells [2]): 1.25 fold | IL-2 secretion fold change vs. IgG control, 0.1 nM IgG (mixed lymphocyte reaction) (human PD-1 on cells [2]): 1.64 fold | IL-2 secretion fold change vs. IgG control, 1 nM IgG (mixed lymphocyte reaction) (human PD-1 on cells [2]): 2.45 fold | IL-2 secretion fold change vs. IgG control, 10 nM IgG (mixed lymphocyte reaction) (human PD-1 on cells [2]): 2.63 fold | IL-2 secretion fold change vs. IgG control, 100 nM IgG (mixed lymphocyte reaction) (human PD-1 on cells [2]): 3.08 fold | IFN-γ secretion fold change vs. IgG control, 0.01 nM IgG (mixed lymphocyte reaction) (human PD-1 on cells [3]): 1.32 fold | IFN-γ secretion fold change vs. IgG control, 0.1 nM IgG (mixed lymphocyte reaction) (human PD-1 on cells [3]): 1.94 fold | IFN-γ secretion fold change vs. IgG control, 1 nM IgG (mixed lymphocyte reaction) (human PD-1 on cells [3]): 2.26 fold | IFN-γ secretion fold change vs. IgG control, 10 nM IgG (mixed lymphocyte reaction) (human PD-1 on cells [3]): 1.99 fold | IFN-γ secretion fold change vs. IgG control, 100 nM IgG (mixed lymphocyte reaction) (human PD-1 on cells [3]): 1.72 fold | EC50 (human PD-1 on cells [4]): 0.978 nM | Kd [11]: 0.104 nM | koff [11]: 2.98e-05 s⁻¹ | kon [11]: 286000 M⁻¹ s⁻¹ | IC50 [12]: 0.3 nM | IC50 [13]: 0.34 nM | Kd [14]: 0.103 nM | koff [14]: 3.86e-05 s⁻¹ | kon [14]: 377000 M⁻¹ s⁻¹ | Kd [15]: 0.102 nM | koff [15]: 3.6e-05 s⁻¹ | kon [15]: 354000 M⁻¹ s⁻¹ | Kd [16]: 0.118 nM | koff [16]: 4.22e-05 s⁻¹ | kon [16]: 358000 M⁻¹ s⁻¹

B6: Antibody G in IgG1 format (antibody, V domains shown)
VH: QVQLVQSGAEVKKPGSSVRVSCKASGGTLSSYAISWVRQAPGQGLEWMGLIIPMFGAAGYAQRFQGRVTITADESASTAYMELSSLRSEDTAVYYCARAEHSSTGTFDYWGQGTLVTVSS
VL: DIQMTQSPSSVSASVGDRVTITCRASQGISSWLAWYQQKPGKAPKLLISAASSLQSGVPSRFSGSGSGTDFTLTISSLQPEDFATYYCQQANHLPFTFGGGTKVEIK
notes: IgG1 format, expressed in yeast; also called Antibody G in an IgG1 format and expressed in yeast
Kd [17]: 1 pM | Kd (b-PD-1 monomer [18]): 0.014 nM | fold lower KD than nivolumab and pembrolizumab (hPD-1_HIS [8]): 4 fold | Kd (hPD-1_HIS [9]): 0.44 nM
